Results on three molecules are retold here after patent US6653088 (AVENTIS PHARMA S A, dated 2003).

As a reminder, the IC50 is the concentration at which inhibition is half-maximal.

The chains are these.
B1: S-tag-PS2Nt (recombinant PS2NT protein produced in bacterium) (other, not shown: small tags and cut ends)
chain: MLTFMASDSEEEVCDERTSLMSAESPTPRSCQEGRQGPEDGENTAQWRSQENEEDGEEDPDRYVCSGVPGRPPGLEEELTLKYGAKH
notes: also called unlabelled PS2NT
B2: amyline (peptide, UniProt P10997 34-70, looked up)
peptide: KCNTATCATQRLANFLVHSSNNFGAILSSTNVGSNTY
notes: also called another amyloidogenous peptide
B3: cytoplasmic domain of the APP (MC45F) (other, not shown: small tags and cut ends)
chain: KKQYTSIHHGVVEVDAAVTPEERHLSKMQQNGYENPTYKFFEQMQNDYDDDDK
notes: also called cytoplasmic domain of APP; the 45 last residues of the APP

The target of one test is T1, biot-3K-Aβ42RR (UniProt P05067 672-713, biotin at the N-terminal end).
T1 construct: domain: Aβ1-42; also called biot-Aβ42; biot-Aβ1-42
The experiment in a line: HTRF competition; unlabelled PS2NT displaces PS2NT-K from biot-Aβ42. A general note: Time-resolved FRET reads energy transfer from a long-lived donor to a nearby acceptor.

For test [1], the target named is B1. Description: 96-well plate test (ELISA type), peptide on plastic, S-tag detection. On the procedure:
The plates are rinsed twice with PBS and the non-specific immobilization sites are saturated by incubation with 5% (w/v) of bovine serum albumin in PBS. […] The detection of the signal is carried out in a spectrophotometer at 450 nm.
The Aβ peptide (Aβ40 or Aβ42) is immobilized by incubation on plastic 96-well plates.
In general terms: An ELISA detects its analyte on a solid surface through an enzyme-linked reagent.

In a further test the target is T2, presenilin 2 (PS2) (human, UniProt P49810 1-448).
T2 construct: whole, on cells; Full-length membrane protein; complexes formed in transfected COS cells and were analysed in detergent lysates; also called complete PS2; STM2
Description: co-immunoprecipitation from cotransfected COS cells, detection with αCT43.

Description for presenilin 2 (PS2): For immunoprecipitation, 100 μg of proteins are diluted in 400 μl of modified RIPA (150 mM NaCl, 50 mM Tris pH 8.0, 1% TRITON X100 v/v, 1% NP40 v/v). Thirty microlitres of protein A Sepharose suspension (0.1% m/v in PBS solution) and 3 μl of antibody are added. The suspensions are gently mixed on a rotating shaker at 4° C. for one night. The protein A Sepharose complex is washed 3 times with 0.5 ml of modified RIPA and once with 0.5 ml of "Wash C" washing buffer (10 mM Tris pH 7.5).

As to B1, the IC50 with biot-3K-Aβ42RR worked out at 400 nM.
For the molecule B2, the binding result in test [1] was “no binding”.
For B3, the binding result in the test with presenilin 2 (PS2) is recorded as “no binding”.
